Legend:
Assay in all cases: SPR
Details in all cases: both partners purified
[1] = biological target: PfHsp70-1_(G648) (Plasmodium falciparum 3D7, UniProt Q8IB24 1-677, 648[…]657 to 648[…]657)
[2] = biological target: PfHsp70-1_(G632-664) (Plasmodium falciparum 3D7, UniProt Q8IB24 1-677, 632[…]664 to 632[…]664)
[3] = biological target: T1, Plasmodium falciparum Hsp70-1 (PfHsp70-1), wild type (Plasmodium falciparum 3D7, UniProt Q8IB24 1-677)
T1 construct: PfHsp70-1, cytosolic Hsp70 of Plasmodium falciparum 3D7, NCBI XP_001349336.1; called the full length PfHsp70-1 protein; pQE30 vector with N-terminal (His)6-tag; also called WT; wild type PfHsp70-1

[4] = biological target: PfHsp70-1∆G (Plasmodium falciparum 3D7, UniProt Q8IB24 1-677, deletion of residues 632-664)
[5] = biological target: PfHsp70-1_(G632) (Plasmodium falciparum 3D7, UniProt Q8IB24 1-677, 632GGMPGGMP639 to 632AALAAALA639)

Measured: binding result

B1: Plasmodium falciparum Hsp70-Hsp90 organising protein (PfHop) (natural protein, UniProt Q8ILC1 1-564, looked up)
chain: MVNKEEAQRLKELGNKCFQEGKYEEAVKYFSDAITNDPLDHVLYSNLSGAFASLGRFYEALESANKCISIKKDWPKGYIRKGCAEHGLRQLSNAEKTYLEGLKIDPNNKSLQDALSKVRNENMLENAQLIAHLNNIIENDPQLKSYKEENSNYPHELLNTIKSINSNPMNIRIILSTCHPKISEGVEKFFGFKFTGEGNDAEERQRQQREEEERRKKKEEEERKKKEEEEMKKQNRTPEQIQGDEHKLKGNEFYKQKKFDEALKEYEEAIQINPNDIMYHYNKAAVHIEMKNYDKAVETCLYAIENRYNFKAEFIQVAKLYNRLAISYINMKKYDLAIEAYRKSLVEDNNRATRNALKELERRKEKEEKEAYIDPDKAEEHKNKGNEYFKNNDFPNAKKEYDEAIRRNPNDAKLYSNRAAALTKLIEYPSALEDVMKAIELDPTFVKAYSRKGNLHFFMKDYYKALQAYNKGLELDPNNKECLEGYQRCAFKIDEMSKSEKVDEEQFKKSMADPEIQQIISDPQFQIILQKLNENPNSISEYIKDPKIFNGLQKLIAAGILKVR
notes: PfHop, Hsp70-Hsp90 organising protein of Plasmodium falciparum
binds: [1] | [2] | [3] | [4] | [5]
